Reference: the DeepSol protein solubility set

Test: soluble on expression in E. coli; label from the status in PepcDB or PDB records

Sequence	soluble on expression in E. coli
MAHHHHHHMSGILTNLNIESGYFNEDIKEESNESNFMYANISMLIRAYKKDRNKLILLNKKLNLIKIVGLVLNIEEKKEFIIYTIDDTTGCIKAKLLLTYSLNSYNEKKDNIKINDLIQIFGICNTVSLNEDLTISISSINKLDSFNYLCHHHLLVFHDYLKYQEEERRNPIEDKSRNDEDDLESTQNNENAYFNTFFY	not soluble
MSGQHRTRVGGVILAAGRSSRYESGNKLLATIDGKAVVRQVTETACKSSLSDAVAVLGHEKVAVAAALDGLSLSVQHNDEYATGQSASVRHGVEFARSAGWDAALFLLGDMPFVRVETIEELLEAYRTGTATVVVPEHEGRRGNPVLFDNCHFDSLASVSGDRGGRDIIETTEKTAFIEVSDPGVHWDIDTDADLAEFTDRRDSLLEHHHHHH	not soluble
AHHHHHHGSGASPVIVPVRCFTCGKVIGDKYYEFKRRVEAGEDPEKVLDDLGLERYCCRRMLLSHVELIDDIMHYRVY	not soluble
MPPRFNIANVLLSPDGETFFRGFRSKIHAKGSLVCTGEGDENGVFVVVDGRLRVYLVGEEREISLFYLTSGDMFCMHSGCLVEATERTEVRFADIRTFEQKLQTCPSMAWGLIAILGRALTSCMRTIEDLMFHDIKQRIAGFFIDHANTTGRQTQGGVIVSVDFTVEEIANLIGSSRQTTSTALNSLIKEGYISRQGRGHYTIPNLVRLKAAADGDRDDDDD	soluble
MGHHHHHHSHMEGTYITSEHSYQKPQSFGQDCKSLADPGSSDDDDVSSLEEEQEFHMRSKNSLQYSAKEHGMPEKNPAEGNTVFVYNDKKGTEDPGDSHLQWQLNLLTHIENVQNEVTSRMDLIEKEVDVLESWLDFTGELEPPDPLARLPQLKRHIKQLLIDMGKVQQIATLCSV	not soluble
KTNRRSETNIIRFNNSIFSAAVDYLNEMYNKQLGSICEPLINAYADVEQESPRNKQQGYVKVEFLEPDEEHDYTEQTLISLGMEVEHLLQSGVKLNDIAILVRKNKSIPRIADYFDKQLNYKIVSDEAFRLDASLAICMMLDALRYLSDPENRIVKAQLATNYQLQILHSEYDLNSLLLHKAEELFPPAFLERMAELRLMPLYELLEELFSLFELHRIEQQDAYLFAFFDAVTDYLQSHSSDPDSFIRYWNETLSGKTIPSGEVEGIRIFSIHKSKGLEFHTVLLPFCDWKLENETNNQLVWCVPQEAPFNELDIVPVNYSSAMAESVYRTDYLHERLQLWVDNLNLLYVAFTRAGKNLIIWSRKGQRNTMA	not soluble
MTSKTSESGTGTQSTIVQLRNLPDLTEISHLEIDAPVVEILKKTVLFQLNSLNICISNFALDELVNLVTVQMDGMFRNLHNLTLLQRRSQASQADLKLLLREFNLDAPSLYQQFQASEFIKSKHSTEYEKLMSWSSLAALPHNEEDEEDELNNIEEQQNEINVLLPPSNPLEKQIPSWLPNFPPDHTYKFTPEFNHPITDLKTIKKEIVKESQESEKALLNLNKSLSHISSASNTPQPPGLDDEDAIEQQLEIWGNALEERKPTITEKSFNENNIEQYAKYRVELARERVTKFEVNQLKRTKNPFLKISETLYLPESPHQSHKTIQKTIELQFRKSMTLFMHNLPKVQKLKKEKIRMAKEERAKSLKRRQEELISQRTKREQDEGHDLELLLNNEHARDAADDTTTPNALNNSTIVINTNAEDEDDDINLFGILGSSEDENEMSSMPAENLVAESEPPTMTAQDTTNTTPVAHNTTNIDATTSHSPHSTPNENAPTSPPADIATDHDITM	soluble
MTYLVTGATGGLGGYALNYLKELVPMSDIYALVRSKEKGADLKAAGFNIRVGDYSDAESMKQAFAGIDRVLFVSGAPGNRQVEHENVINAAKKAGVSYIAYTSFAGADKSTSALAEDHFFTEKVIEKSGIAHTFLRNNWYFENEMPMIGGALSAGKFVYAAENGKVGWALKREYAEVAAKAVAGAGFPEILELSGPLMTYEELTKALKEATGKDFDVISSDDKGFVENLVSVGLPQPVAEMFLSFQHDIKNDQLDVTSDDFEKALGKPLTNRVDALRELLKLEHHHHHH	soluble
MREPYYKKLLGIKNYLIRKNYPEELEILIPKYVEENKELRGCIDCLSCLSVCPAREVSDYPGPTFMRQLARFAFDKRDEDGREITAYFENIYNCTTCAKCVEVCPKEIDIVHRAIEKLRALAFSKGYYIENHLEHHHHHH	not soluble
MAHHHHHHMEKVITMREIITNTRKIKLHENFLEDCNLKDIFYNGLETVNCGYNDYVNMKTWLFVLSEKMFRTDYEELAYVACDALKVLLCNSKFLNVIIFKLLRKKLEKEILKIMGICCLTVASRMQQINESTCFKVILELSNLKDKLNEFNIRQIEMDVFVTLAHSGFCFEKIITPVNELNQIMKFLETYENFFDNNFNTFKSSSNLMLKIIYCMVPVFNMNIYNYSIVNYALRLFIQDNDKYEFIFEKLKQNYQDKEIIHISNFQNHMHNIINAFKNTSIFSAKDSILNNQLDVQLFEEINKKIEAYYEQKHKT	not soluble
MGSDKIHHHHHHMKNRIEDRRIKYTKMVIKQSLITLLKNKPINKVTVTEICNLADINRSTFYTHYSNPYDLLDSIEEELFEEVKSSLRDSEGETKIENTVNEIFKAIAKNKELFKIFFSSHRDYGFLIKFFGAVYNNSIDNFKSAFKSNNDAQLEYLYNYILTGNASISYKWIKNGLKESPEEMASLVNRLIVHTMSFIK	not soluble
VVRRLTSPRLEFEAAAIYEYPEHLRSFLNDLPTRPGVYLFHGESDTMPLYIGKSVNIRSRVLSHLRTPDEAAMLRQSRRISWICTAGEIGALLLEARLIKEQQPLFNKRLRRNRQLCALQLNEKRVDVVYAKEVDFSRAPNLFGLFANRRAALQALQTIADEQKLCYGLLGLEPLSRGRACFRSALKRCAGACCGKESHEEHALRLRQSLERLRVVCWPWQGAVALKEQHPEMTQYHIIQNWLWLGAVNSLEEATTLIRTPAGFDHDGYKILCKPLLSGNYEITELDPANDQRAS	soluble
MDLAKLGLKEVMPTKINLEGLVGDHAFSMEGVGEGNILEGTQEVKISVTKGAPLPFAFDIVSVAFGYGNRAYTGYPEEISDYFLQSFPEGFTYERNIRYQDGGTAIVKSDISLEDGKFIVNVDFKAKDLRRMGPVMQQDIVGMQPSYESMYTNVTSVIGECIIAFKLQTGKHFTYHMRTVYKSKKPVETMPLYHFIQHRLVKTNVDTASGYVVQHETAIAAHSTIKKIEGSLPVDHHHHHH	soluble
MQAEILLTLKLQQKLFADPRRISLLKHIALSGSISQGAKDAGISYKSAWDAINDMNQLSEHMLVERATGGKGGGGAVLTRYGQRLIQLYDLLGQIQQKAFDVLSDDDALPLDSLLAAISRFSLQTSARNQWFGTITARDRDLVQQHVDVLLADGKTRLKVALTAQSGERLGLEEGKEVLILLKAPWVGITRDAAVARAADNQLSGTISHIERGAEQCEVLMALPDGQTLCATIPTSDAATLKEGDDVIAWFNADRVIIATLC	not soluble
MMEYKIVENGLTYRIGNGASVPISNTGELIKGLRNYGPYEVPSLKYNQIALIHNNQFSSLINQLKSQISSKIDEVWHIHNINISEFIYDSPHFDSIKSQVDNAIDTGVDGIMLVLPEYNTPLYYKLKSYLINSIPSQFMRYDILSNRNLTFYVDNLLVQFVSKLGGKPWILNVDPEKGSDIIIGTGATRIDNVNLFCFAMVFKKDGTMLWNEISPIVTSSEYLTYLKSTIKKVVYGFKKSNPDWDVEKLTLHVSGKRPKMKDGETKILKETVEELKKQEMVSRDVKYAILHLNETHPFWVMGDPNNRFHPYEGTKVKLSSKRYLLTLLQPYLKRNGLEMVTPIKPLSVEIVSDNWTSEEYYHNVHEILDEIYYLSKMNWRGFRSRNLPVTVNYPKLVAGIIANVNRYGGYPINPEGNRSLQTNPWFL	soluble
MDLKITNGFYDPSHLSYEVVERKGLGHPDTLADGIAEQIEIDYSLYCLDKFGVIPHHNFDKIIIRGGHSVQDFGGSDFIEPIKIIFLGRASKKCFNSSIPLFKIQKKAATKYLNRILPNLDVENYVEFETLTSDFTTKTNWFSPEAIEDLPEYLDVPKANDTATMISYWPLTISEELALMIEGYFYKLDKNELPTPRFTKMGGDIKVMVVRNDLEYSIRINFPLISKFFNNDIESQLYVDKHVEKIKKYIEQKYKNISFSIDYHYYLTTTGSCIDFGEEGAVGRGNKTHGIISSFRPNTMEAPAGKNCTYFVGKVWGFLSDTIAKEIYEAFNTPCQIIMQLNIGSKLYRPTHLFIQTEESVDQERVLEIVNRHLNNGKQNTNLILSTQHFIPKTNVYDG	not soluble
MDYLYHPYPSQRMTVFAKNGVVATSQPLAAQAGLDVLKKGGNAIDAAIAAAACLTVVEPTSNGIGGDAFALVWTDGKLYGLNASGYAPKSISIEALKELGYTEMPKYGFAPVTVPGAPAAWAALSKRFGRLPLVETLAPAIAYAENGYPVSPVLGKYWAAAFRTYKEALRGPEFAAWFATFAPGGRAPKIGEVWASPDHAATLRSIAETEAESFYRGELAEKIAAFSKQYGGFLAADDLAEYEPEWVEPISVSYRGYEVWEIPPNGQGIVALMALNIMNGFDVPSVSDVETHHRQIEAMKLAFADGKAYIADRRYMNCSPDELLSESFAAMRRAQIGEEALTPEPGTPPKGGTVYLAAADGEGNMVSFIQSNYMGFGSGLVVPGTGIALHNRGHNFAFDESHPNGLAPRKKPYHTIIPGFLTKGGAPVGPFGVMGGFMQPQGHLQVIMNTVDFDLNPQAALDAPRWQWMEGKTVLVEPHFPRHIAEALARKGHDIRLALDSGLFGRGQIIWRDPDTGVLAAGTEPRTDGAVAAW	not soluble
MQLEELINQHYSKLNDNDFHILKYILNHKHTCYHLGIDALAKACSVSRSSILRLAQKLGFSGYSEFRVFLKWEDQPEEGESMSFEKLLDDIEANLKFLRTKDMTDMCQLIDAADRIFVYGSGNAQKICARDLQRMFIPRHRYLILIEDTNEFNLMRDDFKVNDLFIIISLSGETPELIPQARMLSAKGIPFISITNLKNNVLAQLTPHNLYATSKPVTLSDRTEIVAFAPFFLVGEALFRAYVDYKEAEKNDNEMAGDPLEHHHHHH	soluble
STAREQPIFSTRAHVFQIDPATKRNWIPAGKHALTVSYFYDATRNVYRIISIGGAKAIINSTVTPNMTFTKTSQKFGQWADSRANTVYGLGFASEQHLTQFAEKFQEVKEAARLARE	soluble
MGHTMPAHTPPAQTAPAAQKAGAQALPVTVQGATVAAVPPSIRDTAAYMTLTNKSDQPIKLVGAATPLATSPMLMTTTHSGGMAGMKMVPWLTIPARGTLTLQRDGDHVMLMGLKRPLKVGETVNITLKATDGRTLNVAATVKKNIEGR	soluble
MSLSASRAIKERDSRSHIKVLFPSMPYVYVSRLINEGLVRLAENDQGWEYSLATDCPKLSPTLYECTLRQGVRFQDGTPFNADSVIKNFDYFLAQPFNYTDIHRSLKAVEKVSPYKIRLILSQPYGMLFRDLARIFFYSDAYLRQYGWGGAETGANIKSAGSYGLGPYILVEGMITGRKQTPKAILKANPYYWEKGFPKIETITVFTELETQSALESLLEREGELDFMPIPFNKKIETLLSPYTKLIITPSTNNFTIYFNLHKHDSKVFDPKVRQALNCALNQENLLNFTYKKEGRPNTGAYTHEDCPFSLRELHEILRGLKFKVATQDSLLFLWRGIEYQLSRYGVELEFLLTTSEKEIYDLAQKNHQQTQEWDMLIQGTQDWYGRHPWPIFIRYQEGNPWSFVTGDIKMREAINQLFRHEQGTPEFEALCQTIIQRAKEKAYMLFIPTPHAVYGMNKELHFTPHGIGLQPLWKAEVTSEHWSLRGDKPYPESLQKPILPQREGHHHHHH	not soluble
